Data on 14 molecules can be found in PMC8789040, “Directed evolution of orthogonal RNA–RBP pairs through library-vs-library in vitro selection”.

Substitutions are numbered along the chain they refer to.

Settings in all cases: protein: recombinant, tags: N-term Twin-Strep-tag, C-term 6xHis
The target in data set [1] is dL7Ae (Archaeoglobus fulgidus (printed A. …, UniProt O29494 1-119, E34K;K37E;R41E;I88G;E89G;V90G;P91G;C92S)). Put plainly: SPR; SPR: 10 mM HEPES pH 7.4, 150 mM NaCl, 1 mM MgCl2, 0.05% P20, 0.25 mM TCEP, 0.1 mg/ml BSA, 25 ug/ml yeast tRNA, 25 C; EMSA: 10 mM HEPES-KOH pH 7.5, 140 mM KCl, 10 mM NaCl, 1 mM MgCl2, 0.1 mM TCEP, 0.01% Tween-20, 10 ug/ml yeast tRNA (1x of the printed 5x buffer).

Data set [2] has as its target L7Ae (Archaeoglobus fulgidus (printed A. …, UniProt O29494 1-119)). The data set is described as above.
The target of data set [3] is dL7Ae (Archaeoglobus fulgidus, UniProt O29494 2-119, E34K;K37E;R41E;I88G;E89G;V90G;P91G;C92S). Put plainly: SPR (Biacore T200, RNA captured, protein analyte); SPR running buffer: 10 mM HEPES pH 7.4, 150 mM NaCl, 0.05% Surfactant P20, 1 mM MgCl2, 0.25 mM TCEP, 0.1 mg/ml BSA, 25 ug/ml yeast tRNA, 25 C; RNA captured by its 3' docking sequence on biotinylated 2'-OMe RNA.
Data set [4] addresses L7Ae (Archaeoglobus fulgidus, UniProt O29494 2-119). Described as above.

Sequence of L7Ae (Archaeoglobus fulgidus (O29494 whole entry): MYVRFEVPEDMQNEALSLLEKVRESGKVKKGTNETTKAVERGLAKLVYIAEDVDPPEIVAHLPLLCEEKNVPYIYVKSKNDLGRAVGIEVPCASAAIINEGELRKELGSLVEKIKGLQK
Sequence of L7Ae (O29494 2-119): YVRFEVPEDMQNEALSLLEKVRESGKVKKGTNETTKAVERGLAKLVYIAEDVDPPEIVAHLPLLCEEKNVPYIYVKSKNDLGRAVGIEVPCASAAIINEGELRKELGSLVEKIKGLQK
Sequence of dL7Ae (O29494 2-119 E34K/K37E/R41E/I88G/E89G/V90G/P91G/C92S): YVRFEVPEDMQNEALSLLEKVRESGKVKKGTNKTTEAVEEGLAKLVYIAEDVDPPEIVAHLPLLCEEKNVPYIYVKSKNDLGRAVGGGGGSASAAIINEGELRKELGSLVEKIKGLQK
Sequence of dL7Ae (Archaeoglobus fulgidus (O29494 whole entry E34K/K37E/R41E/I88G/E89G/V90G/P91G/C92S): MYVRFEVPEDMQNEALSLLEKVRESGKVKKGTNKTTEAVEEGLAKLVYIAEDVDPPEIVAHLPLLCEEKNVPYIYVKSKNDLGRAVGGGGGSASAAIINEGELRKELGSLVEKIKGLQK

B1: Box C/D Kt (Kt_SPR) (structured_RNA)
RNA: GGAUCGCGUGAUCCGAAAGGUGACGAUCCAAAUCGACGAAAGACACAGAACG
B1: the binding result in the data set with dL7Ae [1] (hairpin with kink-turn) and with dL7Ae [3] (hairpin with kink-turn) was “no binding” throughout. Further, the equilibrium dissociation constant (Kd) with L7Ae [2] (hairpin with kink-turn) and with L7Ae [4] (hairpin with kink-turn) was 21.3 pM throughout.

B2: CS1-M1 (structured_RNA)
RNA: GGUGGCUGAGAAAGGCGAAAGCCUUGUGAUGCCAUCAAAUCGACGAAAGACACAGAACG
Regarding B2, the Kd with L7Ae [2] (hairpin) stood at 1810 pM.

B3: CS1-M2 (structured_RNA)
RNA: B2 RNA with U7A, G8U, A29U, U30G
For the molecule B3, the binding result in the data set with L7Ae [4] is “no binding”.

B4: CS1-M2a (structured_RNA)
RNA: B2 RNA with U7A, G8U, U30G
In the case of B4, the binding result with L7Ae [4] is recorded as “binds”.

B5: CS1-M3 (structured_RNA)
RNA: B2 RNA with U7A, A9U, G28U, U30G
For B5, in the data set with L7Ae [4], the binding result is “no binding”.

B6: CS1-M2c (structured_RNA)
RNA: B2 RNA with U7A, A29U, U30G
With B6, the binding result with L7Ae [4] is on record as “binds”.

B7: CS1 (structured_RNA)
RNA: B2 RNA with U7A, U30G
For the molecule B7, the equilibrium dissociation constant (Kd) with L7Ae [2] (hairpin, internal loop) was determined as 1490 pM.

B8: CS1-M2b (structured_RNA)
RNA: B2 RNA with U7A, G8A, U30G
As to B8, the binding result in the data set with L7Ae [4] is reported as “binds”.

B9: dKt (dKt_SPR) (structured_RNA)
RNA: GGCUGGGGCGUCAUCCGAAAGGUGCCCCAGCCAAAUCGACGAAAGACACAGAACG
Take B9: the binding result with dL7Ae [1] (hairpin, defective kink-turn) is listed as “no binding”; with L7Ae [2] (hairpin, defective kink-turn) it was “no binding”; with dL7Ae [3] (hairpin, defective kink-turn), “no binding”; with L7Ae [4] (hairpin, defective kink-turn) it was “no binding”.

B10: CS2 (structured_RNA)
RNA: GGAUGCAGAGAACGAAAGUUCCAUGACGCAUCCAAAUCGACGAAAGACACAGAACG
With B10, the Kd with L7Ae [2] (hairpin, asymmetric internal loop (putative kink-turn)) was determined as 5.71 pM.

B11: CS2-M3 (structured_RNA)
RNA: B10 RNA with G25U
Take B11: in the data set with L7Ae [2] (hairpin), the Kd turned out to be 200000 pM.

B12: CS2-M2 (structured_RNA)
RNA: B10 RNA with A9C
Consider B12, for which, in the data set with L7Ae [4], the binding result was “no binding”.

B13: CS2-M4 (structured_RNA)
RNA: B10 RNA with A26C
Regarding B13, the binding result with L7Ae [4] is “binds”.

B14: CS2-M1 (structured_RNA)
RNA: B10 RNA with G8A
With B14, in the data set with L7Ae [4], the binding result was “binds”.
